The values that follow are results of earlier work, collected in patent publication US7662384B2, “Use of anti-α5β1 antibodies to inhibit cancer cell proliferation” (Facet Biotech Corporation, priority 2004, dated 2010).

Data set [1] has as its system angiogenesis. The conditions noted are these: monkey eye model; cited from earlier work.
The test system of data set [2] is angiogenesis. The conditions noted are these: rabbit eye model; cited from earlier work.

Like-named read-outs stand apart in the source and are kept apart here.

B1: F200: Fab fragment derived from M200 (antibody, chains of the INN, looked up, V domains shown)
VH: QVQLKESGPGLVAPSQSLSITCTISGFSLTDYGVHWVRQPPGKGLEWLVVIWSDGSSTYNSALKSRMTIRKDNSKSQVFLIMNSLQTDDSAMYYCARHGTYYGMTTTGDALDYWGQGTSVTVSS
VL: QIVLTQSPAIMSASLGERVTMTCTASSSVSSNYLHWYQQKPGSAPNLWIYSTSNLASGVPARFSGSGSGTSYSLTISSMEAEDAATYYCHQYLRSPPTFGGGTKLEIK
modifications: Fab
notes: Fab fragment derived from M200
For B1, the “in vivo anti-angiogenic efficacy” value in the data set with angiogenesis [1] and in the data set on angiogenesis [2] was “in vivo anti-angiogenic efficacy” throughout.
